Assay results: patent US9364516B2, “Treatment of fibrosis-related disorders using fibronectin binding proteins and polypeptides” (priority 2010, dated 2016)

Legend:
[1] = tested on: cell spreading or adhesion to collagen or fibronectin; conditions: cited from earlier work
[2] = molecular target: T1, fibrinogen (Homo sapiens, UniProt P02671+P02675+P02679); test: ELISA binding of pUR4 to ECM proteins: fibrinogen; conditions: plates coated 10 μg/mL, FIG. 7
T1 construct: purchased Enzyme Research Laboratories (South Bend, Ind.)
T1 sequence (P02671 20-629 limits assumed): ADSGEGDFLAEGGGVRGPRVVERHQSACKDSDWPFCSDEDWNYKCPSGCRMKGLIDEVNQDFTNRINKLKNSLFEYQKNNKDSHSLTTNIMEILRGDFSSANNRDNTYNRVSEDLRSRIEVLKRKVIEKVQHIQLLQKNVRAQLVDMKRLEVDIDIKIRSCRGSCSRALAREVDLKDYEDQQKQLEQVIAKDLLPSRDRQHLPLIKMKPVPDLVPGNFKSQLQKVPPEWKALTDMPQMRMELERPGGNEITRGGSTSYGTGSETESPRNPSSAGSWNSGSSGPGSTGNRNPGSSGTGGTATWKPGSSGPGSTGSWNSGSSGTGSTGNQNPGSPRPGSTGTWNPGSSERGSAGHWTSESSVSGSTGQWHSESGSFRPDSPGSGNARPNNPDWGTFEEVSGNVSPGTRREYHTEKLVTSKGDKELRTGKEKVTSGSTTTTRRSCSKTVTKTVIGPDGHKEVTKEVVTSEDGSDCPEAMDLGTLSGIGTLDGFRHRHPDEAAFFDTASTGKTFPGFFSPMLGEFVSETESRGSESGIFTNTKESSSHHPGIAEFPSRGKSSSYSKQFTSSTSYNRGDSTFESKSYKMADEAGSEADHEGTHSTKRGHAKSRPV
T1 sequence (P02675 31-491): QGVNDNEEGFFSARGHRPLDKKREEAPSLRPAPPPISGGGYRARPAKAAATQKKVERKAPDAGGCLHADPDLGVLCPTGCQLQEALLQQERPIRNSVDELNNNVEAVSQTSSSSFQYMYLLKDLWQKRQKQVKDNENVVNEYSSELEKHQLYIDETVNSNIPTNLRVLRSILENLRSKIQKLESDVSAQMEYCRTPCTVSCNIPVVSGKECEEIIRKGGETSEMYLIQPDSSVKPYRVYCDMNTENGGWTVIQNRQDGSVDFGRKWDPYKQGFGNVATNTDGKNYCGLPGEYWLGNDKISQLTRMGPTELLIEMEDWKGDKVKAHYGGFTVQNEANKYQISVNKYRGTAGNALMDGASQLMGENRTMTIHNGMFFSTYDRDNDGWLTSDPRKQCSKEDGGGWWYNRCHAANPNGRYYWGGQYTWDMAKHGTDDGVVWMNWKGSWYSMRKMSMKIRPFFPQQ
T1 sequence (P02679 27-453): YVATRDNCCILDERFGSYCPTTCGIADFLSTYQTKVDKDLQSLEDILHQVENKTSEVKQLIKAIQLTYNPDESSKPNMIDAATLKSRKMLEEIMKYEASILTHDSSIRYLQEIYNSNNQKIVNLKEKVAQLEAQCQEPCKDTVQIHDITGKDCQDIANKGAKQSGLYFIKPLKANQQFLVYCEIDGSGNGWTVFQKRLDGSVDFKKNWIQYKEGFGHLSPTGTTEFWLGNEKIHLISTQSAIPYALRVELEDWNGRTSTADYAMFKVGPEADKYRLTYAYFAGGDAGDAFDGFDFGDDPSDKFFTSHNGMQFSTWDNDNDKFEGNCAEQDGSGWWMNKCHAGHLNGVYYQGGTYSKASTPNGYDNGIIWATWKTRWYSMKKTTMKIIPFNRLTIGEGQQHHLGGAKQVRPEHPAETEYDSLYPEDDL
Experimental: FIG. 7 is a graph depicting the binding of pUR4 to ECM Proteins. 96-well plates were coated with 10 μg/mL type I collagen (COL), denatured type I collagen (dCOL), fibronectin (FN), laminin (LN), vitronectin (VN), or fibrinogen (FG) at 4° C. overnight. pUR4 was added to the wells and serially diluted. Bound pUR4 was detected as described herein. Measurements were done at 405 nm on a Wallac 1420 multilabel counter. Data represents the average of duplicate determinations, and the error bars the range.
96-well tissue culture plates were coated with 10 μg/mL type I collagen, fibronectin, laminin, fibrinogen, or vitronectin overnight at 4° C. Denatured collagens were generated as described (George et al., “Fibronectins are Essential for Heart and Blood Vessel Morphogenesis but are Dispensable for Initial Specification of Precursor Cells,” Blood 90:3073-3081 (1997), which is hereby incorporated by reference in its entirety). Plates were blocked with 1% bovine serum albumin (BSA) in Tris buffered saline (TBS) for 1 hour, then washed with TBS. pUR4 was serially diluted into coated wells, then incubated at room temperature for 90 min. Wells were washed with TBS containing 0.1% Tween 20. […] After washing, peroxidase activity was quantified by using 2,2′-azino-bis-(3-ethylbenthiazoline-[…]). […]

B1: pUR4: 49-mer peptide derived from the bacterial F1 adhesin, His tagged, SEQ ID NO:1; class I fibronectin polymerization inhibitor (peptide)
chain: MRGSHHHHHHGSKDQSPLAGESGETEYITEVYGNQQNPVDIDKKLPNETGFSGNMVETEDTKLN
modifications: His tag; Bacterial adhesin derived peptide pUR4
[1]
  inhibition of cell spreading or adhesion to collagen or fibronectin: does not inhibit
[2]
  binding to fibrinogen: does not bind
